The source of these data is patent publication US20250042992A1 (University of California, published 2025).

The target of assay [1] is human-mouse chimeric DLK1 HM8-mGFP on HEK293T cells (region 8 of human DLK1 long form replaced with mouse). The assay can be described thus: direct flow cytometry, control antibody at 20ug/ml, cells 849 HEK293T DLK1 HM8-mGFP; no ab 1,653.50; same antibody on HEK293T parental 4,432.00.
The target of assay [2] is human-mouse chimeric DLK1 HM2-mGFP on HEK293T cells (region 2 of human DLK1 long form replaced with mouse). The assay can be described thus: direct flow cytometry, control antibody at 20ug/ml, cells 835 HEK293T DLK1HM2-mGFP; no ab 1,251.00; same antibody on HEK293T parental 4,432.00. Background: In flow cytometry, cells or beads pass a laser one at a time.
The target of assay [3] is human DLK1 long form (isoform 1, DLK1-FL) fused to mGFP, overexpressed on HEK293T cells (human) (UniProt P80370). The assay can be described thus: indirect flow cytometry, 1° control antibody at 4ug/ml detected with an AF-647 secondary antibody, cells HEK293T DLK1 mGFP G06 (long form); same antibody on HEK293T parental 3,130.00.
Assay [4] addresses human-mouse chimeric DLK1 HM3-mGFP on HEK293T cells (region 3 of human DLK1 long form replaced with mouse). The assay can be described thus: direct flow cytometry, control antibody at 20ug/ml, cells 836 HEK293T DLK1HM3-mGFP; no ab 1,657.50; same antibody on HEK293T parental 4,432.00.
In assay [5] the target is human DLK1 long form (isoform 1, DLK1-FL) fused to mGFP, overexpressed on HEK293T cells (human) (UniProt P80370). The assay can be described thus: direct flow cytometry, control antibody at 20ug/ml, cells HEK293T DLK1 mGFP G06 (long form); no ab 1,649.00; same antibody on HEK293T parental 4,432.00.
For assay [6], the target named is human-mouse chimeric DLK1 HM6-mGFP on HEK293T cells (region 6 of human DLK1 long form replaced with mouse). The assay can be described thus: direct flow cytometry, control antibody at 20ug/ml, cells 851 HEK293T DLK1 HM6-mGFP; no ab 1,992.00; same antibody on HEK293T parental 4,432.00.
Assay [7] addresses human-mouse chimeric DLK1 HM1-mGFP on HEK293T cells (region 1 of human DLK1 long form replaced with mouse). The assay can be described thus: direct flow cytometry, control antibody at 20ug/ml, cells 834 HEK293T DLK1HM1-mGFP; no ab 1,385.00; same antibody on HEK293T parental 4,432.00.
Assay [8] concerns the target human-mouse chimeric DLK1 HM7-mGFP on HEK293T cells (region 7 of human DLK1 long form replaced with mouse). The assay can be described thus: direct flow cytometry, control antibody at 20ug/ml, cells 848 HEK293T DLK1 HM7-mGFP; no ab 1,583.50; same antibody on HEK293T parental 4,432.00.
Assay [9] concerns the target human-mouse chimeric DLK1 HM4-mGFP on HEK293T cells (region 4 of human DLK1 long form replaced with mouse). The assay can be described thus: direct flow cytometry, control antibody at 20ug/ml, cells 837 HEK293T DLK1HM4-mGFP; no ab 1,516.00; same antibody on HEK293T parental 4,432.00.
For assay [10], the target named is human DLK1 short form (isoform 2, DLK1-MB) fused to mGFP, expressed on HEK293T cells (human) (UniProt P80370). The assay can be described thus: direct flow cytometry, AF647-labelled control antibody at 20ug/ml, cells 832-HEK293T DLK1 Iso2-mGFP mass pop (short form); same antibody on HEK293T parental 21,331.00.
Assay [11] has the same target. The assay can be described thus: indirect flow cytometry, 1° control antibody at 4ug/ml detected with an AF-647 secondary antibody, cells 832-HEK293T DLK1 Iso2-mGFP mass pop (short form); same antibody on HEK293T parental 3,130.00.
The target of assay [12] is human-mouse chimeric DLK1 HM5-mGFP on HEK293T cells (region 5 of human DLK1 long form replaced with mouse). The assay can be described thus: direct flow cytometry, control antibody at 20ug/ml, cells 850 HEK293T DLK1 HM5-mGFP; no ab 1,807.00; same antibody on HEK293T parental 4,432.00.
For assay [13], the target named is human DLK1 long form (isoform 1, DLK1-FL) fused to mGFP, overexpressed on HEK293T cells (human) (UniProt P80370). The assay can be described thus: direct flow cytometry, AF647-labelled control antibody at 20ug/ml, cells HEK293T DLK1 mGFP G06 (long form); same antibody on HEK293T parental 21,331.00.
The target of assay [14] is human DLK1 endogenously expressed on COR-L279 small cell lung carcinoma cells (human) (UniProt P80370). The assay can be described thus: flow cytometry, (His)6-tagged scFv detected with AF647-anti-His tag 2° Ab, CORL279 (DLK1+) cells; same scFv on M202 (DLK1-) 8,072.00; 2° Ab only on CORL279 63,034.00; no ab 4,394.00.
The target is the same in assay [15]. The assay can be described thus: flow cytometry, (His)6-tagged scFv detected with AF647-anti-His tag 2° Ab, CORL279 (DLK1+) cells; same scFv on M202 (DLK1-) 9,460.00; 2° Ab only on CORL279 63,034.00; no ab 4,394.00.
Assay [16] addresses human DLK1 long form (isoform 1, DLK1-FL) fused to mGFP, overexpressed on HEK293T cells (human) (UniProt P80370). The assay can be described thus: direct flow cytometry, AF647-labelled antibody at 20ug/ml, cells HEK293T DLK1 mGFP G06 (long form); same antibody on HEK293T parental 17,562.00.
Assay [17] addresses DLK1 ECD-mFc long form (human DLK1-FL, isoform 1) (human) (UniProt P80370). The assay can be described thus: ELISA, plate coated with DLK1 ECD-mFc long form, anti-human IgG Fc-HRP detection. Background: ELISA stands for enzyme-linked immunosorbent assay.
Assay [18] has as its target human DLK1 short form (isoform 2, DLK1-MB) fused to mGFP, expressed on HEK293T cells (human) (UniProt P80370). The assay can be described thus: direct flow cytometry, AF647-labelled antibody at 20ug/ml, cells 832-HEK293T DLK1 Iso2-mGFP mass pop (short form); same antibody on HEK293T parental 17,562.00; hIgG1-AF647 on the same cells 29,714.00.
For assay [19] the target is unchanged. The assay can be described thus: indirect flow cytometry, 1° antibody at 4ug/ml detected with an AF-647 secondary antibody, cells 832-HEK293T DLK1 Iso2-mGFP mass pop (short form); same antibody on HEK293T parental 2,827.00; hIgG1 on the same cells 2,895.00.
For assay [20], the target named is DLK1 ECD-mFc long form (human DLK1-FL, isoform 1) (human) (UniProt P80370). The assay can be described thus: ELISA, plate coated with long form of DLK1 ECD-mFc (isoform 1), anti-human IgG Fc-HRP, OD450nm.
Assay [21] concerns the target human DLK1 long form (isoform 1, DLK1-FL) fused to mGFP, overexpressed on HEK293T cells (human) (UniProt P80370). The assay can be described thus: indirect flow cytometry, 1° antibody at 4ug/ml detected with an AF-647 secondary antibody, cells HEK293T DLK1 mGFP G06 (long form); same antibody on HEK293T parental 2,827.00.
Assay [22] has as its target human DLK1 endogenously expressed on COR-L279 small cell lung carcinoma cells (human) (UniProt P80370). The assay can be described thus: flow cytometry, (His)6-tagged scFv detected with AF647-anti-His tag 2° Ab, CORL279 (DLK1+) cells; same scFv on M202 (DLK1-) 11,680.00; 2° Ab only on CORL279 63,034.00; no ab 4,394.00.
Assay [23] has the same target. The assay can be described thus: flow cytometry, ADC at 20µg/ml, row CORL-279 (SCLC, DLK+); row M202 of the same block: 4,385.0.

Chain of human DLK1 short form (isoform 2, DLK1-MB) fused to mGFP, expressed on HEK293T cells (human) (P80370 other isoform, or with tags, fused parts or gaps): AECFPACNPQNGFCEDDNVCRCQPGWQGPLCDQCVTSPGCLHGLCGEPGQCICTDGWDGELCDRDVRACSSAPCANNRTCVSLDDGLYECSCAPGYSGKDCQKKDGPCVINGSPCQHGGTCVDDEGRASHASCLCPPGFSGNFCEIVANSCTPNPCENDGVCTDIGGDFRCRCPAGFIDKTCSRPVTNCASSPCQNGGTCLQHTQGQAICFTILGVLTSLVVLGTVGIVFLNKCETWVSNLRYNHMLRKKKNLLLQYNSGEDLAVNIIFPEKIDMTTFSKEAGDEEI
Chain of human DLK1 long form (isoform 1, DLK1-FL) fused to mGFP, overexpressed on HEK293T cells (human) (P80370 24-383): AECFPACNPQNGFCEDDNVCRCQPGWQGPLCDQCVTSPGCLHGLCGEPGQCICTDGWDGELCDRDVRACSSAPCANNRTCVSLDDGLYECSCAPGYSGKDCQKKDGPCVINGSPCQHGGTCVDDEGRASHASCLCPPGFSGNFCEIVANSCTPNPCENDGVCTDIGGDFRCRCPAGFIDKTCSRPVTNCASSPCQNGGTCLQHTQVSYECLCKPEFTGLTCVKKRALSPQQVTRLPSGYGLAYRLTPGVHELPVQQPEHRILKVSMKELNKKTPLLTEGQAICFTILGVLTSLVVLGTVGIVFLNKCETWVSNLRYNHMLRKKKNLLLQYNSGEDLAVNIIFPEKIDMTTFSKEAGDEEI
Chain of DLK1 ECD-mFc long form (human DLK1-FL, isoform 1) (human) (P80370 24-303): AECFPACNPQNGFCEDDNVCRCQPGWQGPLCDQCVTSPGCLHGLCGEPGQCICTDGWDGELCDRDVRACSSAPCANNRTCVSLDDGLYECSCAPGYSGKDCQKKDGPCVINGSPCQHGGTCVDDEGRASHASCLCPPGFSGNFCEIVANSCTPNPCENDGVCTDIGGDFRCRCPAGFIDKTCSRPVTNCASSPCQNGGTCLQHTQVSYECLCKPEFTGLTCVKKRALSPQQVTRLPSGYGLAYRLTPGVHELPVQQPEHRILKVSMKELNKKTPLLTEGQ
Chain of human-mouse chimeric DLK1 HM8-mGFP on HEK293T cells (region 8 of human DLK1 long form replaced with mouse) (chain, as listed by the source mutant limits assumed, form in doubt): as the sequence (P80370 24-383) above, with A93T, Y96F, K103H, D105A, T120A, R127Q counted along it
Chain of human-mouse chimeric DLK1 HM5-mGFP on HEK293T cells (region 5 of human DLK1 long form replaced with mouse) (chain, as listed by the source mutant limits assumed, form in doubt): as the sequence (P80370 24-383) above, with F4D, A6P, N8D, N11Y, D16A, Q23H, P24V, Q27E counted along it

Consider “non-targeting human IgG1 negative control antibody”, for which the FL4H/AF-647 signal was determined as 4360 in assay [1]; 8510 in [2]; 4120 in assay [3]; 8770 in [4]; 9870 in assay [5]; 6460 in assay [6]. Also, the FL4H/AF-647 signal in assay [7] worked out at 8760; in [8] it was 5270; in assay [9] it was 8480; in assay [10], 29700; in assay [11], 2900; in [12] it was 7660. In addition, the FL4H/AF-647 signal in assay [13] was determined as 47900.

B1: 04-0562-h10scfv, single chain Fv of 04-0562-h10 DLK1 antibody, with C-terminal (His)6 tag (scFv)
scFv: DIVMTQSPLSLPVTPGEPASISCRSSQSLVHINGNTYLHWYLQKPGQSPQLLIYKVSNRFSGVPDRFSGSGSGTDFTLKISRVEAEDVGVYYCSQTTHVPWTFGQGTKLEIKGGGGSGGGGSGGGGSQVQLQESGPGLVKPSETLSLTCTVSGFSLTSYGVSWVRQPPGKGLEWIGVIWGDGSTSYNPSLKSRVTISKDTSKNQVSLKLSSVTAADTAVYYCAKPDGPLGQGTLVTVSSHHHHHH
In assay [14], B1 showed an average AF-647 fluorescence (FL4-H) of 622000.

B2: 04-0547-h2scfv, single chain Fv of 04-0547-h2 DLK1 antibody, with C-terminal (His)6 tag (scFv)
scFv: DIQMTQSPSSLSASVGDRVTITCRASHDVSTAVAWYQQKPGKAPKLLIYSASYRYTGVPSRFSGSGSGTDFTLTISSLQPEDFATYYCQQHYRIPLTFGQGTKLEIKGGGGSGGGGSGGGGSEVQLVESGGGLVQPGGSLRLSCAASGFSISDYYMAWVRQAPGKGLEWVANINYDGTNTYYADSVKGRFTISRDNSKNTLYLQMNSLRAEDTAVYYCVRSYYYYGMEYWGQGTTVTVSSHHHHHH
In [15], B2 showed an average AF-647 fluorescence (FL4-H) of 763000.

B3: LegoChem 18A5 benchmark anti-DLK1 antibody (antibody, from another filing, V domains shown)
VH: QVQLVQSGGAVVQPGHSLRLSCEASGFKFKDYGMHWVRQAPGKGLEWLAVISHDGRNKNYADSVKGRLTISRDNSKNTLSFQMNSLRAEDTAVYYCVRDWSYAFDIWGQGTLVTVSS
VL: DIQMTQSPSFLSASVGDRVNITCRASQDISRRLAWYQQKPGKAPKLLIYGAASLQSAVASRFSGSGSGTEFTLTISSLQPEDFANYYCQQIYTTPLTFGGGTKVEIK
With B3, the FL4H/AF-647 signal in [16] was found to be 153000; in assay [18], 43500; in assay [19] it was 3350; in assay [21], 20400. Further, the EC50 in assay [17] and in [20] was 0.0179 µM each time.

B4: 04-0561-F1scfv, single chain Fv of 04-0561-F1 DLK1 antibody, with C-terminal (His)6 tag (scFv)
scFv: DIVMTQSPDSLAVSLGERVTMNCKSSQSLLQSSNQKNYLAWYQQKPGQPPKLLVYFASTRESGVPDRFSGSGSGTDFTLTISSVQAEDVAVYYCQQHYSIPLTFGQGTKLEIKGGGGSGGGGSGGGGSQVQLQESGPGLVKPSETLSLTCTVSGFSLSIYSVHWVRQPPGKGLEWIGLIWGGGSTDYNPSLKSRVTISKDTSKNQVSLKLSSVTAADTAVYYCARKEGNYLWFAYWGQGTLVTVSSHHHHHH
Turning to B4, in assay [22], the average AF-647 fluorescence (FL4-H) turned out to be 1.43e+06.

B5: 04-0547-h2-MMAE-AF647 (04-0547-h2 antibody conjugated to both MMAE and Alexa Fluor 647) (antibody, IgG1, V domains shown)
VH: EVQLVESGGGLVQPGGSLRLSCAASGFSISDYYMAWVRQAPGKGLEWVANINYDGTNTYYADSVKGRFTISRDNSKNTLYLQMNSLRAEDTAVYYCVRSYYYYGMEYWGQGTTVTVSS
VL: DIQMTQSPSSLSASVGDRVTITCRASHDVSTAVAWYQQKPGKAPKLLIYSASYRYTGVPSRFSGSGSGTDFTLTISSLQPEDFATYYCQQHYRIPLTFGQGTKLEIK
modifications: MC-VC-PAB-MMAE on free thiols of cysteines (see heavy chain); MC-VC-PAB-MMAE on free thiols of cysteines (about 90% at reduced interchain disulfides, average 4 MMAE per antibody); Alexa Fluor 647 label
In assay [23], B5 gave an ADC Binding Activity by Flow Cytometry (20µg/ml) of 225000.

One may read the EC50 as the midpoint of the concentration-response curve. Read a low EC50 as an effect from little substance.
